The source of these data is patent US6333311.

Assay [1] addresses HT-29 cells (human colon carcinoma cell line). Briefly: Scatchard analysis, 125I-labelled lactoferrin on HT-29 cells; High affinity (nM).
Assay [2] deals with Jurkat cell 105 kD lactoferrin receptor (human). Kind of assay: Scatchard analysis, 125I-labelled protein on whole Jurkat cells (species comparison).
Assay [3] deals with HT-29 cells (human colon carcinoma cell line). Kind of assay: Scatchard analysis, 125I-labelled lactoferrin on HT-29 cells; High affinity (nM); the cell wraps into r15 (8^a)).
Assay [4] deals with human lysozyme (human) (UniProt P61626). Kind of assay: solid-phase ligand binding ELISA on hLZ-coated plates. A general note: An ELISA detects its analyte on a solid surface through an enzyme-linked reagent.
Assay [5] shares this target. Kind of assay: solid-phase ligand binding ELISA on hLZ-coated plates; percent of the response with natural hLF.
Assay [6] deals with Jurkat cell 105 kD lactoferrin receptor (human). Kind of assay: Scatchard analysis, 125I-labelled protein on whole Jurkat cells.
The target in assay [7] is HT-29 cells (human colon carcinoma cell line). Kind of assay: Scatchard analysis, 125I-labelled lactoferrin on HT-29 cells; column Total affinity (µM); high affinity binding lost (--).
The target in assay [8] is Jurkat cell 105 kD lactoferrin receptor (human). Briefly: Scatchard analysis, Jurkat cells cultured 24 h with 30 mM sodium chlorate.
Assay [9] deals with HT-29 cells (human colon carcinoma cell line). Briefly: Scatchard analysis, 125I-labelled lactoferrin on HT-29 cells; column Total affinity (µM); high affinity binding lost (--); one experiment.
Assay [10] concerns the target Jurkat cell 105 kD lactoferrin receptor (human). Kind of assay: Scatchard analysis, 125I-hLf on Jurkat cells cultured without sodium chlorate.
For assay [11] the target is unchanged. Briefly: Scatchard analysis, 125I-hLf on Jurkat cells cultured 24 h with 30 mM sodium chlorate.

Chain of bovine lactoferrin (P24627 20-708 limits assumed): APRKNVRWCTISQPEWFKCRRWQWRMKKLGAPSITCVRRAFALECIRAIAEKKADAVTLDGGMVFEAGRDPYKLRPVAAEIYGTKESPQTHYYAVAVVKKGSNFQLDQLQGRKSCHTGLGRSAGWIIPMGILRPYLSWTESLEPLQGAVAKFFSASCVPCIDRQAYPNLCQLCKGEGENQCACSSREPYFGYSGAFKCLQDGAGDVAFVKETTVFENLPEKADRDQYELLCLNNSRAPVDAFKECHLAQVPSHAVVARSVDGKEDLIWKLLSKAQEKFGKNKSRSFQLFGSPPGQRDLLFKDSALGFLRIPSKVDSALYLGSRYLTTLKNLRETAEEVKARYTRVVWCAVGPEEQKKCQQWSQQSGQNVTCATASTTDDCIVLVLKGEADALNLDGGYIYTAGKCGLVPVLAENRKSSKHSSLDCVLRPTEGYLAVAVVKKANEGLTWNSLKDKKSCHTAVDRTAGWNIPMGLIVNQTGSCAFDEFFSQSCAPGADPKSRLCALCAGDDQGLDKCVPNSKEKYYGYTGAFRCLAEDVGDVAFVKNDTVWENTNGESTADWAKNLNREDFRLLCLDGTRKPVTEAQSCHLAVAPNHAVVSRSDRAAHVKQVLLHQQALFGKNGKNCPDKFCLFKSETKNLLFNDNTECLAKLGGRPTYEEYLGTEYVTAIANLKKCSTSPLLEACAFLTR

Turning to “bovine lactoferrin (from UniProt P24627) (ligand)”, the Kd – broadly, the concentration at which binding is half-saturated – in assay [1] is 0.081 µM; in assay [2], 0.06 µM.

For hLF^-2N (from UniProt P02788) (ligand), the dissociation constant Kd came to 0.124 µM in assay [3] and 0.065 µM in assay [6]. Moreover, the fold lower affinity than N-terminally intact hLF in the assay with human lysozyme (human) [4] worked out at 3 fold lower. Moreover, the Reactivity (%) in the assay with human lysozyme (human) [5] came to 37.5%.

For hLF^-3N (from UniProt P02788) (ligand), the values for the Kd in assay [7], in [6] and in assay [8] were 1.7 µM, 0.057 µM and 0.0572 µM, respectively. Moreover, the fold lower affinity than N-terminally intact hLF with human lysozyme (human) [4] amounted to 17 fold lower. Besides, the Reactivity (%) with human lysozyme (human) [5] came to 5.1%.

As to hLF^-4N (from UniProt P02788) (ligand), the equilibrium dissociation constant (Kd) turned out to be 0.7 µM in assay [9] and 0.041 µM in [6].

“iron-saturated human lactoferrin (from UniProt P02788) (ligand)” yielded an equilibrium dissociation constant (Kd) in assay [1] of 0.066 µM. This lies in the double-digit nanomolar range.

Regarding “murine lactoferrin (from UniProt P08071) (ligand)”, in assay [2], the Kd was 0.031 µM.

As for “natural human lactoferrin (from UniProt P02788) (ligand)”, the Kd in [1] amounted to 0.074 µM; in [10], 0.0711 µM; in assay [2] it was 0.06 µM; in assay [6], 0.069 µM; in assay [11], 0.0626 µM.

In the case of “non-modified recombinant human lactoferrin (from UniProt P02788) (ligand)”, the equilibrium dissociation constant (Kd) in assay [6] turned out to be 0.081 µM.

For the substance rhLF^-5N (ligand), the Kd in [6] stood at 0.0124 µM; in assay [8] it was 0.0279 µM.

“transgenic hLF isolated from milk of a transgenic bovine (from UniProt P02788) (ligand)”: the equilibrium dissociation constant (Kd) in assay [1] is 0.088 µM.
